Where a SMILES comes first, the peptide text is derived from it.
How the values were obtained:
erythrocytes = experiment: Hemolysis assay; format: cell-based; settings: 5 × 10^7 erythrocytes in 1 mL PBS pH 7.4; 1, 0.5, 0.25 or 0.125 nmoles/10^7 cells; 15 min; Abs 540 nm; relative to Triton X-100 1%; n = 3
Procedure: Hemolysis studies were conducted as described in [48]. Briefly, freshly withdrawn blood samples were centrifuged at 2000× g for 10 min to obtain erythrocytes; the pellet was then washed three times with sterile PBS (pH 7.4). Erythrocytes (5 × 10^7 cells in 1 mL of PBS for each experimental condition) were incubated with the tested compounds at the concentrations of 1, 0.5, 0.25, or 0.125 nmoles/10^7 cells for 15 min. The samples were then centrifuged and the absorbance (Abs) of the supernatant was measured at 540 nm. Triton X-100 1% and PBS were used as positive and negative control, respectively. The percentage of hemolysis was calculated with the following equation:% hemolysis = [(Abssample − AbsPBS)/(AbsTriton X-100 − AbsPBS)] × 100

[1] = Blood stability: hydrolysis of PAPTPL-peptide derivatives in mouse blood; format: in vitro ADME; settings: heparinized mouse whole blood, 5 µM from 5 mM DMSO stock, 37 °C, 4 h, UHPLC/UV 312 nm, mean of n = 3
Procedure: Procedures involving animals were approved by the University of Padova Ethical Committee for Animal Welfare (OPBA) and by the Italian Ministry of Health (Permit Number 846/2021-PR), and conducted with the supervision of the Central Veterinary Service of the University of Padova, in compliance with Italian Law DL 26/2014, embodying UE Directive 2010/63/EU. Mice were anesthetized and blood was withdrawn from the jugular vein and heparinized. Blood samples (1 mL) were spiked with compound (5 µM; dilution from a 5 mM stock solution in DMSO) and incubated at 37 °C for 4 h (the maximum period allowed by blood stability). Aliquots (100 µL) were taken after 10 min, 30 min, 1 h, 2 h, and 4 h, kept on ice, and treated as follows: blood was mixed with 5 volumes of 0.1%TFA in CH3CN, mixed and sonicated for 2 min, and finally centrifuged for 7 min at 12,000× g; the supernatant was collected and analyzed by UHPLC. Quantitative analyses were carried out by UHPLC (1290 Infinity LC System, Agilent Technologies, Milan, Italy) using a reversed-phase column (Zorbax RRHT Extend C18, 1.8 µm, 50 × 3.0 mm, Agilent Technologies) and a UV diode array detector (190–500 nm), at a flow rate of 0.6 mL/min. Solvents A and B were 0.1% TFA in water and CH3CN, respectively. The gradient for B was as follows: 10% for 1 min, then from 10 to 100% in 8.0 min, 100% for 0.5 min, then from 100% to 10% in 1.5 min. The injection volume was 5 µL. The eluate was preferentially monitored at 312 nm (corresponding to an absorbance maximum of psoralenic compounds). The temperature of the column was kept at 25 °C. Concentration of PAPTPL or its derivatives was determined using the following calibration curve, which correlates peak area at 312 nm (y) with compound concentration in the sample (x): y = 6.3321x. The stability in blood was expressed as % of PAPTPL released relative to the amount of the derivative initially spiked in the sample.

HPAFII cells = experiment: Cell uptake of PAPTPL-I-DA7R (HPLC/UV); format: cell-based, human; settings: 5 µM, 15 min, 37 °C, DMEM without Phenol Red and serum, nmoles/mg total protein, n ≥ 9
Procedure: HPAFII and Pan02 cells were seeded in 6-well plates at a density of 300,000 and 150,000 cells/well, respectively, and grown for 48 h. They were then washed twice with PBS and incubated for 15 min at 37 °C with a solution of 5 µM PAPTPL-I-DA7R in DMEM without Phenol Red and serum. At the end of the incubation, cells were washed twice, 100 µL of PBS were added, and finally the cells were scraped and collected. A volume of 100 µL of CH3CN + 0.1%TFA was added, and the mixture was vortexed and sonicated for 5 min. Samples were finally centrifuged for 5 min at 12,000× g, and the supernatant was collected and the amount of PAPTPL-I-DA7R was quantified by HPLC/UV, as described in Section 2.5 (blood stability). The remaining cell pellets were resuspended in 200 µL of SDS 2%, and the total protein amount of each sample was quantified with the BCA assay. Cell uptake of PAPTPL-I-DA7R was expressed as nmoles of PAPTPL-I-DA7R/total protein.

NRP-1 = settings: surface plasmon resonance; cited from earlier work
Source text: (§1) A7R peptide binds to both neuropilin-1 (NRP-1) and vascular endothelial growth factor receptor-2 (VEGFR2/KDR), disrupting their receptor/coreceptor interaction, and impacting, therefore, on angiogenesis and tumor growth. […] Binding of A7R to NRP-1, on the other hand, mainly involves interactions of Arg with the ...

VEGFR2 = settings: surface plasmon resonance; cited from earlier work
Source text: as §1

Compound: CC[C@H](C)[C@H](NC(=O)Oc1ccc(CCCOc2ccc([P+](CCCc3ccc(OCCCCOc4c5ccoc5cc5oc(=O)ccc45)cc3)(c3ccccc3)c3ccccc3)cc2)cc1)C(=O)N[C@H](CCCNC(=N)N)C(=O)N1CCC[C@@H]1C(=O)N1CCC[C@@H]1C(=O)N[C@H](CC(C)C)C(=O)N[C@H](Cc1c[nH]c2ccccc12)C(=O)N[C@@H](C(=O)N[C@H](C)C(=O)O)[C@H](C)O [PAPTPL-I-DA7R] (HELM PEPTIDE1{[O=C(Oc1ccc(CCCOc2ccc([P+](CCCc3ccc(OCCCCOc4c5ccoc5cc5oc(=O)ccc45)cc3)(c3ccccc3)c3ccccc3)cc2)cc1)[*:2]].I.[dR].[dP].[dP].[dL].[dW].[dT].[dA]}$$$$V2.0)
- Hemolysis (erythrocytes): did not induce any hemolysis
- % of conjugate hydrolyzed (PAPTPL released relative to derivative initially spiked) [1]: about 30%
- Uptake by HPAFII cells relative to cultured Pan02 cells (HPAFII cells): roughly twice as much

Compound: CC(C)C[C@@H](NC(=O)[C@H]1CCCN1C(=O)[C@H]1CCCN1C(=O)[C@@H](CCCNC(=N)N)NC(=O)CCCc1cn(CCOCCOCCOCCOCCNC(=O)Oc2ccc(CCCOc3ccc([P+](CCCc4ccc(OCCCCOc5c6ccoc6cc6oc(=O)ccc56)cc4)(c4ccccc4)c4ccccc4)cc3)cc2)nn1)C(=O)N[C@H](Cc1c[nH]c2ccccc12)C(=O)N[C@@H](C(=O)N[C@H](C)C(=O)O)[C@H](C)O [PAPTPL-Teg-DA7R]
- Hemolysis (erythrocytes): increase in the ability of the derivative (PAPTPL-Teg-DA7R) to lyse erythrocytes
- % of conjugate hydrolyzed (PAPTPL released relative to derivative initially spiked) [1]: about 50%

Compound: CC(C)C[C@@H]1NC(=O)[C@H](Cc2c[nH]c3ccccc23)NC(=O)[C@H]([C@@H](C)O)NC(=O)[C@H](C)NC(=O)[C@H](Cc2cn(CCOCCOCCOCCOCCNC(=O)Oc3ccc(CCCOc4ccc([P+](CCCc5ccc(OCCCCOc6c7ccoc7cc7oc(=O)ccc67)cc5)(c5ccccc5)c5ccccc5)cc4)cc3)nn2)NC(=O)[C@H](CCCNC(=N)N)NC(=O)[C@@H]2CCCN2C(=O)[C@@H]2CCCN2C1=O [PAPTPL-Teg-cA7R]
- Hemolysis (erythrocytes): dramatic increase in the hemolysis
- % of conjugate hydrolyzed (PAPTPL released relative to derivative initially spiked) [1]: about 50%

Compound: C#CC[C@@H]1NC(=O)[C@H](CCCNC(=N)N)NC(=O)[C@@H]2CCCN2C(=O)[C@@H]2CCCN2C(=O)[C@H](CC(C)C)NC(=O)[C@H](Cc2c[nH]c3ccccc23)NC(=O)[C@H]([C@@H](C)O)NC(=O)[C@H](C)NC1=O [cA7R] (HELM PEPTIDE1{A.T.W.L.P.P.R.[C#CC[C@H](N[*:1])C(=O)[*:2]]}$PEPTIDE1,PEPTIDE1,1:R1-8:R2$$$V2.0)
- Hemolysis (erythrocytes): completely ineffective towards erythrocytes
- Affinity for NRP-1 (NRP-1): retain affinity
- Affinity for VEGFR2 (VEGFR2): retain affinity
